Literature values, collected in article PMC2734106.

Columns and labels:
ubiquitin (Homo sapiens) = ubiquitin (Homo sapiens) (UniProt P0CG47)
[1] = molecular target: K48-linked tetraubiquitin (Homo sapiens) (UniProt P0CG47)

USP5, sequence (P45974 2-858): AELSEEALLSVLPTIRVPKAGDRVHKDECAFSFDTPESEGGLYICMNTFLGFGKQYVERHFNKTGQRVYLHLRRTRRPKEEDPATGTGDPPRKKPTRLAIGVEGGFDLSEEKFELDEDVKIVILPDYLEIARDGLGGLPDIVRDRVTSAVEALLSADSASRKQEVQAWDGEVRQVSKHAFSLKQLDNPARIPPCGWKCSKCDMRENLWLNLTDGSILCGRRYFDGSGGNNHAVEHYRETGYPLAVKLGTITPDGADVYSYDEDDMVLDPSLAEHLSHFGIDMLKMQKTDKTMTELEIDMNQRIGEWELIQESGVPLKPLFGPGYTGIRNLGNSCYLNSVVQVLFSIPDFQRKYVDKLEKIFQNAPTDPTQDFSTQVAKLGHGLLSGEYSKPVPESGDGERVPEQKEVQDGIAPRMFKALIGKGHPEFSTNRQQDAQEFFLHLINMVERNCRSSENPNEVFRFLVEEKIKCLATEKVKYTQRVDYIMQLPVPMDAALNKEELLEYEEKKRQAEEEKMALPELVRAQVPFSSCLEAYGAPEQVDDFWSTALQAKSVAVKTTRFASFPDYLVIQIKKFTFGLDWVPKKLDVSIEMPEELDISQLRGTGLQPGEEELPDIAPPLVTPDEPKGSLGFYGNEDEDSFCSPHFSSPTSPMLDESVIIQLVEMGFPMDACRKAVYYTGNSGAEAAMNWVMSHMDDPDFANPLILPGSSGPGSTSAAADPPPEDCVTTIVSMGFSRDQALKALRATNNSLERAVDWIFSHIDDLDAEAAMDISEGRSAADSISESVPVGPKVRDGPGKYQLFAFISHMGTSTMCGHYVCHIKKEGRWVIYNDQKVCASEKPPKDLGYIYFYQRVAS

Kd (ubiquitin (Homo sapiens)): 50 nM
Kd [1]: < 1 nM
Substance: USP5 (from UniProt P45974)
